Data as given in US20150045540A1 (published 2015).

T1: Placenta Growth Factor (PlGF), human (human, UniProt P49763 21-149)
T1 chain: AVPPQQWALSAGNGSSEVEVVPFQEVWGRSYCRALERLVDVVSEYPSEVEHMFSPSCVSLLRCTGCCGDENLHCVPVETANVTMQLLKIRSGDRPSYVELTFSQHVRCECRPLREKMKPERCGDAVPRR


Columns and labels:
[1] = target: T1, Placenta Growth Factor (PlGF), human; assay: ELISA
[2] = target: Hepatocyte Growth Factor (HGF), human (human, UniProt P14210 32-728); assay: ELISA
Hepatocyte Growth Factor (HGF), human, sequence (P14210 32-728): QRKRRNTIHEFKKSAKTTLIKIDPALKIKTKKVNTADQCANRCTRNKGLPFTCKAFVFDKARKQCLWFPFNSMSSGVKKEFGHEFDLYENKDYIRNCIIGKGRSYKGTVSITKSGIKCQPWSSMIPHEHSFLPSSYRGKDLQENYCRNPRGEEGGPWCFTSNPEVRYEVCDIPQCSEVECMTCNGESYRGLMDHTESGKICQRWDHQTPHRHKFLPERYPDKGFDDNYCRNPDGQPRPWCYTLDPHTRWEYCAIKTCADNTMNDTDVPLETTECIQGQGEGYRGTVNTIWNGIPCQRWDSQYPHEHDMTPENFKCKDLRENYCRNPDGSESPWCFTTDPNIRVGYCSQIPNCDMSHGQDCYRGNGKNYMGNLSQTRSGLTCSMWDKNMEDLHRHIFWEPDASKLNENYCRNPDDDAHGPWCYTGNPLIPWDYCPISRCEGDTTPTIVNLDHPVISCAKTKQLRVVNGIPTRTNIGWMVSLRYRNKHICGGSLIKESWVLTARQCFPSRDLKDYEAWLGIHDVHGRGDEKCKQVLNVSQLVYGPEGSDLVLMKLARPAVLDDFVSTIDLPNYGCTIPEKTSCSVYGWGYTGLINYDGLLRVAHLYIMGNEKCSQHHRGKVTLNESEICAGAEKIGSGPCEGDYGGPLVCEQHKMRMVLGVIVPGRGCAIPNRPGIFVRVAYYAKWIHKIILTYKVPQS

EC50 [1] | EC50 [2] | Binder
0.095 nM | 0.056 nM | HC 7/SLC 8 (antibody) chain 1: GQGTLVTVSSASTKGPSQPVLHQPPAMSSALGTTIRLTCTLRNDHDIGVYSVYWYQQRPGHPPRFLLRYFSQSDKSQGPQVPPRFSGSKDVARNRGYLSISELQPEDEAMYYCAMGARSRCWPRGFQSKHNSVTHVFGSGTQLTVLSQPKATPSVTLFPPSSEELQANKATLVCLMNDFYPGILTVTWKADGTPITQGVEMTTPSKQSNNKYAASSYLSLTPEQWRSRRSYSCQVMHEGSTVEKTVAPAECS chain 2: MSWAPVLLMLFVYCTGCGPQPVLHQPPAMSSALGTTIRLTCTLRNDHDIGVYSVYWYQQRPGHPPRFLLRYFSQSDKSQGPQVPPRFSGSKDVARNRGYLSISVTHVFGSGTQLTVLSQPKATPSQVQLVQ
0.191 nM | 0.06 nM | HC 6/SLC 4 (antibody) chain 1: GQGTLVTVSSASTKGPQPVLHQPPAMSSALGTTIRLTCTLRNDHDIGVYSVYWYQQRPGHPPRFLLRYFSQSDKSQGPQVPPRFSGSKDVARNRGYLSISELQPEDEAMYYCAMGARSRCWPRGFQSKHNSVTHVFGSGTQLTVLSQPKATPSVTLFPPSSEELQANKATLVCLMNDFYPGILTVTWKADGTPITQGVEMTTPSKQSNNKYAASSYLSLTPEQWRSRRSYSCQVMHEGSTVEKTVAPAECS chain 2: MSWAPVLLMLFVYCTGCGPQPVLHQPPAMSSALGTTIRLTCTLRNDHDIGVYSVYWYQQRPGHPPRFLLRYFSQSDKSQGPQVPPRFSGSKDVARNRGYLSISVTHVFGSGTQLTVLSQPKQVQLVQ
0.175 nM | 0.058 nM | HC 2/SLC 4 (antibody) chain 1: GQGTLVTVSSASQPVLHQPPAMSSALGTTIRLTCTLRNDHDIGVYSVYWYQQRPGHPPRFLLRYFSQSDKSQGPQVPPRFSGSKDVARNRGYLSISELQPEDEAMYYCAMGARSRCWPRGFQSKHNSVTHVFGSGTQLTVLSQPKATPSVTLFPPSSEELQANKATLVCLMNDFYPGILTVTWKADGTPITQGVEMTTPSKQSNNKYAASSYLSLTPEQWRSRRSYSCQVMHEGSTVEKTVAPAECS chain 2: MSWAPVLLMLFVYCTGCGPQPVLHQPPAMSSALGTTIRLTCTLRNDHDIGVYSVYWYQQRPGHPPRFLLRYFSQSDKSQGPQVPPRFSGSKDVARNRGYLSISVTHVFGSGTQLTVLSQPKQVQLVQ
0.153 nM | 0.07 nM | HC 10/SLC 4 (antibody) chain 1: GQGTLVTVSSASTKGPSVFPQPVLHQPPAMSSALGTTIRLTCTLRNDHDIGVYSVYWYQQRPGHPPRFLLRYFSQSDKSQGPQVPPRFSGSKDVARNRGYLSISELQPEDEAMYYCAMGARSRCWPRGFQSKHNSVTHVFGSGTQLTVLSQPKATPSVTLFPPSSEELQANKATLVCLMNDFYPGILTVTWKADGTPITQGVEMTTPSKQSNNKYAASSYLSLTPEQWRSRRSYSCQVMHEGSTVEKTVAPAECS chain 2: MSWAPVLLMLFVYCTGCGPQPVLHQPPAMSSALGTTIRLTCTLRNDHDIGVYSVYWYQQRPGHPPRFLLRYFSQSDKSQGPQVPPRFSGSKDVARNRGYLSISVTHVFGSGTQLTVLSQPKQVQLVQ
0.229 nM | 0.06 nM | HC 6/SLC 2 (antibody) chain 1: GQGTLVTVSSASTKGPQPVLHQPPAMSSALGTTIRLTCTLRNDHDIGVYSVYWYQQRPGHPPRFLLRYFSQSDKSQGPQVPPRFSGSKDVARNRGYLSISELQPEDEAMYYCAMGARSRCWPRGFQSKHNSVTHVFGSGTQLTVLSQPKATPSVTLFPPSSEELQANKATLVCLMNDFYPGILTVTWKADGTPITQGVEMTTPSKQSNNKYAASSYLSLTPEQWRSRRSYSCQVMHEGSTVEKTVAPAECS chain 2: MSWAPVLLMLFVYCTGCGPQPVLHQPPAMSSALGTTIRLTCTLRNDHDIGVYSVYWYQQRPGHPPRFLLRYFSQSDKSQGPQVPPRFSGSKDVARNRGYLSISVTHVFGSGTQLTVLSQQVQLVQ
0.22 nM | 0.067 nM | HC 3/SLC 4 (antibody) chain 1: GQGTLVTVSSASTQPVLHQPPAMSSALGTTIRLTCTLRNDHDIGVYSVYWYQQRPGHPPRFLLRYFSQSDKSQGPQVPPRFSGSKDVARNRGYLSISELQPEDEAMYYCAMGARSRCWPRGFQSKHNSVTHVFGSGTQLTVLSQPKATPSVTLFPPSSEELQANKATLVCLMNDFYPGILTVTWKADGTPITQGVEMTTPSKQSNNKYAASSYLSLTPEQWRSRRSYSCQVMHEGSTVEKTVAPAECS chain 2: MSWAPVLLMLFVYCTGCGPQPVLHQPPAMSSALGTTIRLTCTLRNDHDIGVYSVYWYQQRPGHPPRFLLRYFSQSDKSQGPQVPPRFSGSKDVARNRGYLSISVTHVFGSGTQLTVLSQPKQVQLVQ
0.053 nM | 0.047 nM | HC 6/SLC 9 (antibody) chain 1: GQGTLVTVSSASTKGPQPVLHQPPAMSSALGTTIRLTCTLRNDHDIGVYSVYWYQQRPGHPPRFLLRYFSQSDKSQGPQVPPRFSGSKDVARNRGYLSISELQPEDEAMYYCAMGARSRCWPRGFQSKHNSVTHVFGSGTQLTVLSQPKATPSVTLFPPSSEELQANKATLVCLMNDFYPGILTVTWKADGTPITQGVEMTTPSKQSNNKYAASSYLSLTPEQWRSRRSYSCQVMHEGSTVEKTVAPAECS chain 2: MSWAPVLLMLFVYCTGCGPQPVLHQPPAMSSALGTTIRLTCTLRNDHDIGVYSVYWYQQRPGHPPRFLLRYFSQSDKSQGPQVPPRFSGSKDVARNRGYLSISVTHVFGSGTQLTVLSQPKATPSVQVQLVQ
0.066 nM | 0.052 nM | HC 5/SLC 9 (antibody) chain 1: GQGTLVTVSSASTKGQPVLHQPPAMSSALGTTIRLTCTLRNDHDIGVYSVYWYQQRPGHPPRFLLRYFSQSDKSQGPQVPPRFSGSKDVARNRGYLSISELQPEDEAMYYCAMGARSRCWPRGFQSKHNSVTHVFGSGTQLTVLSQPKATPSVTLFPPSSEELQANKATLVCLMNDFYPGILTVTWKADGTPITQGVEMTTPSKQSNNKYAASSYLSLTPEQWRSRRSYSCQVMHEGSTVEKTVAPAECS chain 2: MSWAPVLLMLFVYCTGCGPQPVLHQPPAMSSALGTTIRLTCTLRNDHDIGVYSVYWYQQRPGHPPRFLLRYFSQSDKSQGPQVPPRFSGSKDVARNRGYLSISVTHVFGSGTQLTVLSQPKATPSVQVQLVQ
0.181 nM | 0.064 nM | HC 5/SLC 3 (antibody) chain 1: GQGTLVTVSSASTKGQPVLHQPPAMSSALGTTIRLTCTLRNDHDIGVYSVYWYQQRPGHPPRFLLRYFSQSDKSQGPQVPPRFSGSKDVARNRGYLSISELQPEDEAMYYCAMGARSRCWPRGFQSKHNSVTHVFGSGTQLTVLSQPKATPSVTLFPPSSEELQANKATLVCLMNDFYPGILTVTWKADGTPITQGVEMTTPSKQSNNKYAASSYLSLTPEQWRSRRSYSCQVMHEGSTVEKTVAPAECS chain 2: MSWAPVLLMLFVYCTGCGPQPVLHQPPAMSSALGTTIRLTCTLRNDHDIGVYSVYWYQQRPGHPPRFLLRYFSQSDKSQGPQVPPRFSGSKDVARNRGYLSISVTHVFGSGTQLTVLSQPQVQLVQ
0.249 nM | 0.054 nM | HC 3/SLC 5 (antibody) chain 1: GQGTLVTVSSASTQPVLHQPPAMSSALGTTIRLTCTLRNDHDIGVYSVYWYQQRPGHPPRFLLRYFSQSDKSQGPQVPPRFSGSKDVARNRGYLSISELQPEDEAMYYCAMGARSRCWPRGFQSKHNSVTHVFGSGTQLTVLSQPKATPSVTLFPPSSEELQANKATLVCLMNDFYPGILTVTWKADGTPITQGVEMTTPSKQSNNKYAASSYLSLTPEQWRSRRSYSCQVMHEGSTVEKTVAPAECS chain 2: MSWAPVLLMLFVYCTGCGPQPVLHQPPAMSSALGTTIRLTCTLRNDHDIGVYSVYWYQQRPGHPPRFLLRYFSQSDKSQGPQVPPRFSGSKDVARNRGYLSISVTHVFGSGTQLTVLSQPKAQVQLVQ
0.282 nM | 0.059 nM | HC 4/SLC 5 (antibody) chain 1: GQGTLVTVSSASTKQPVLHQPPAMSSALGTTIRLTCTLRNDHDIGVYSVYWYQQRPGHPPRFLLRYFSQSDKSQGPQVPPRFSGSKDVARNRGYLSISELQPEDEAMYYCAMGARSRCWPRGFQSKHNSVTHVFGSGTQLTVLSQPKATPSVTLFPPSSEELQANKATLVCLMNDFYPGILTVTWKADGTPITQGVEMTTPSKQSNNKYAASSYLSLTPEQWRSRRSYSCQVMHEGSTVEKTVAPAECS chain 2: MSWAPVLLMLFVYCTGCGPQPVLHQPPAMSSALGTTIRLTCTLRNDHDIGVYSVYWYQQRPGHPPRFLLRYFSQSDKSQGPQVPPRFSGSKDVARNRGYLSISVTHVFGSGTQLTVLSQPKAQVQLVQ
0.161 nM | 0.056 nM | HC 2/SLC 6 (antibody) chain 1: GQGTLVTVSSASQPVLHQPPAMSSALGTTIRLTCTLRNDHDIGVYSVYWYQQRPGHPPRFLLRYFSQSDKSQGPQVPPRFSGSKDVARNRGYLSISELQPEDEAMYYCAMGARSRCWPRGFQSKHNSVTHVFGSGTQLTVLSQPKATPSVTLFPPSSEELQANKATLVCLMNDFYPGILTVTWKADGTPITQGVEMTTPSKQSNNKYAASSYLSLTPEQWRSRRSYSCQVMHEGSTVEKTVAPAECS chain 2: MSWAPVLLMLFVYCTGCGPQPVLHQPPAMSSALGTTIRLTCTLRNDHDIGVYSVYWYQQRPGHPPRFLLRYFSQSDKSQGPQVPPRFSGSKDVARNRGYLSISVTHVFGSGTQLTVLSQPKATQVQLVQ
0.089 nM | 0.061 nM | HC 10/SLC 6 (antibody) chain 1: GQGTLVTVSSASTKGPSVFPQPVLHQPPAMSSALGTTIRLTCTLRNDHDIGVYSVYWYQQRPGHPPRFLLRYFSQSDKSQGPQVPPRFSGSKDVARNRGYLSISELQPEDEAMYYCAMGARSRCWPRGFQSKHNSVTHVFGSGTQLTVLSQPKATPSVTLFPPSSEELQANKATLVCLMNDFYPGILTVTWKADGTPITQGVEMTTPSKQSNNKYAASSYLSLTPEQWRSRRSYSCQVMHEGSTVEKTVAPAECS chain 2: MSWAPVLLMLFVYCTGCGPQPVLHQPPAMSSALGTTIRLTCTLRNDHDIGVYSVYWYQQRPGHPPRFLLRYFSQSDKSQGPQVPPRFSGSKDVARNRGYLSISVTHVFGSGTQLTVLSQPKATQVQLVQ
0.121 nM | 0.074 nM | HC 10/SLC 3 (antibody) chain 1: GQGTLVTVSSASTKGPSVFPQPVLHQPPAMSSALGTTIRLTCTLRNDHDIGVYSVYWYQQRPGHPPRFLLRYFSQSDKSQGPQVPPRFSGSKDVARNRGYLSISELQPEDEAMYYCAMGARSRCWPRGFQSKHNSVTHVFGSGTQLTVLSQPKATPSVTLFPPSSEELQANKATLVCLMNDFYPGILTVTWKADGTPITQGVEMTTPSKQSNNKYAASSYLSLTPEQWRSRRSYSCQVMHEGSTVEKTVAPAECS chain 2: MSWAPVLLMLFVYCTGCGPQPVLHQPPAMSSALGTTIRLTCTLRNDHDIGVYSVYWYQQRPGHPPRFLLRYFSQSDKSQGPQVPPRFSGSKDVARNRGYLSISVTHVFGSGTQLTVLSQPQVQLVQ
